# Measured values published in the nanobody polyreactivity screen of Harvey et al. (2022).
# Assay: yeast display, Sf9 membrane polyspecificity reagent, FACS + sequencing; frameworks hold sequencing errors
# In short: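 Polyreactivity labels are assigned by the sorting gate from which each nanobody was recovered. The gates were low and high (top ~1%), set on anti-HA fluorescence for expression and streptavidin fluorescence for reagent binding. Before sorting, galactose-induced (36–48 hours) yeast display cells were stained for 1 hour at 4 °C with 10% biotinylated, detergent-solubilized Sf9 membrane reagent.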
row,Sequence,polyreactivity (PSR sort gate)
1,QVQLVESGGGLVQAGGSLRLSCAASGFNYYTMGWYRQAPGKERELVAAINYSGGRTYYADSVKGRFTISRDNAKNTVYLQMNSLKPEDTAVYYCNTARSPYDHRPERSYDYWGQGTQVTVSS,high polyreactivity
2,QVQLVESGGGLVQAGGSLRLSCAASGFPFAKNAMGWYRQAPGKERELVAVITSSGGSTYYADSVKGRFTISRDNAKNTVYLQMNCLKPEDTAVYYCNVAYYYRSRSTGYEYWGQGTQVTVSS,high polyreactivity
3,QVQLVESGGGLVQAGGSLRLSCAASGFPFSRYARGWSRQAPGTERELVATITARGGTTYYADSVKGRFTISRDNAKNTVYLQMNSLKPEDTAVYYCNAKAYYRPYYDYDYGGQGTQVTVSS,high polyreactivity
4,QVQLVESGGGLVQAGGSLRLSCAASGFSFLQYVMGWYSQAPGKERELFAAITSGGSTYYADSVKGRFTISRDNAKNTVYLQMNSLKPDDTAVYYCATDVADNTFYALYGSDYWGQCTQVTVSS,low polyreactivity
5,QVQLVESGGGLVQAGGSLRLSCAASGFSFRYYTMGWYRPAPGKERELVARITWSGRITDYADSVKGRFTISRDNPKNTVYLQMNSLKPEDTAVSYCNAERRWAAYDYCGQGTQVTVSS,high polyreactivity
6,QVQLVESGGGLVQAGGSLRLSCAASGFSFSRNAKGWYRQAPGKERELVAAISIRGGSTYYADSVKGRFTISRDNAKNTVYLQMNILKPEDTAVYYCNAYDLYRQRNGYGYWGQGTQVTVSS,high polyreactivity
7,QVQLVESGGGLVQAGGSLRLSCAASGFSFSRYAMGWYRQAPGKDRELVATITSGGGGTYYADSVKGRFTISRDNAKNTVYLQKNSLKPEDTAVYYCAKYSPYYRNGLDYWGHGTQVTVSS,high polyreactivity
8,QVQLVESGGGLVQAGGSLRLSCAASGFSFVYYAMGWYRQAPGKERELVATISGNGGRTYYADSVKGRFTISRDNAKNTVYLQMNSLKPEDTAVYYCAALLYIRSVGYDYWGQGTQVTVSS,low polyreactivity
9,QVQLVESGGGLVQAGGSLRLSCAASGFSFYYNTMGWYRQAPWTERELVAAITRSFGSTYYADSVKGSFTIARDHAQNTVYVQMNSLKPEDTAVYFCAARAYYFPKLPADYYWGQGTQVSVSS,high polyreactivity
10,QVQLVESGGGLVQAGGSLRLSCAASGFSSVRNDMGWYRQAPGKERELVAAISSGDTKDYADSVKGRFTISRDNAKNTVYLQMNSLNPEDTSVYYCAAVYYGRYYYWGQGTQVTVSS,low polyreactivity
11,QVQLVESGGGLVQAGGSLRLSCAASGFTCKYYTMGWYRQAPGKERELVAAISKSGDITYYADSVKGRFTISRDNAKNTVYLQMNSMKPEDTAVYYCAVVPSSTYHAYDYWGQGTQVTVSS,high polyreactivity
12,QVQLVESGGGLVQAGGSLRLSCAASGFTFAAYAMGWSRQAPGKERELVAAISRSGGSTYYADSVKGRFTISRDNAKNTVYLQMNSLKPEDTAVYYCAAYGWPKYNYWGQGTQVTVSS,high polyreactivity
13,QVQLVESGGGLVQAGGSLRLSCAASGFTFAAYAMGWYRQAPGKESELVAAITSRDGTTYYADSVKGRFTISRNNAKNTVYLQMNSLKPEDTAVYYCAKDHFTWGVSEDDYWRQGTQVTVSS,low polyreactivity
14,QVQLVESGGGLVQAGGSLRLSCAASGFTFAFYAMGWYRQAPGKERELVAAISWDGVTTYYADSVKGRFTISRDHAKNTVYLQMNSQKPEDTAVYYCAADYPDYAGSFWPSGMYYWGQGTQVTVSS,low polyreactivity
15,QVQLVESGGGLVQAGGSLRLSCAASGFTFAFYAMGWYRQAPGKERELVAAITGSGGSTYYADSVKGRFTISRDNAKNTVYLQMNSLKPEDTAVYYCAADKYLDYDYWGQGTQVTVSS,high polyreactivity
16,QVQLVESGGGLVQAGGSLRLSCAASGFTFAFYAMGWYRQAPGKERELVDAIRRTGSTNYADSVKGRFTISRDNAKNTVYLQMNSLKPEDNAVYYCAKTLWYDRGVGYWGQGTQVTVSS,high polyreactivity
17,QVQLVESGGGLVQAGGSLRLSCAASGFTFAFYDMGWYRQAPGKERELVAGISTSDGSTYYADSVKGRFTISRDNAKNTVYLQMNSLKPEDTAVYYCAASYYTYWWGYPVITFDYWGQGTQVTVSS,high polyreactivity
18,QVQLVESGGGLVQAGGSLRLSCAASGFTFAGNAMGWYRQAPGKERELVAAISRRGGSTYYADSVKGRFTISRDNAKNTVYLQMNSLKPEDTAVYYCAAVYPYDYDYWGQGTQVTVSS,high polyreactivity
19,QVQLVESGGGLVQAGGSLRLSCAASGFTFAGYAMGWYRQAPGKEMELVAAINYRGVRTYYADSVKGRFTISRDNSKNTVYLQMNSLIPEDTAVYYCAALPFLPGGGYVIHRFYYWGQGSQVTVSS,high polyreactivity
20,QVQLVESGGGLVQAGGSLRLSCAASGFTFAGYAMGWYRQAPGKERELVAAINRGGSTYYADSVKGRFTISRDNAKNTVYLQMNSLKPEDTAVYYCAKAQRFYGGRMGYWGQGTQVTVST,low polyreactivity
21,QVQLVESGGGLVQAGGSLRLSCAASGFTFAHNAMGWYRQAPGKERELVAAISSRGGRTFYADSVKGRFTISRDNAKNTVYLQMNSLKPEDTAVYYCNRVRSFQYDYWGQGTQVTVSS,high polyreactivity
